{"source": "paper PMC11969024", "about": "“Development of chemokine network inhibitors using combinatorial saturation mutagenesis” (Communications Biology, 2025)", "parents": {"B1": {"name": "peptide HD2 (from tick evasin EVA4) / CCL22 (biotinylated, synthetic) (parent)", "chain 1": "EEDDYTAYAPLTCYFT", "chain 2": "GPYGANMEDSVCCRDYVRYRLPLRVVKHFYWTSDSCPRPGVVLLTFRDKEICADPRVPWVKMILNKLSQ"}, "B2": {"name": "peptide HD2 (from tick evasin EVA4) / CXCL13 (biotinylated, synthetic) (parent)", "chain 1": "EEDDYTAYAPLTCYFT", "chain 2": "VLEVYYTSLRCRCVQESSVFIPRRFIDRIQILPRGNGCPRKEIIVWKKNKSIVCVDPQAEWIQRMMEVLRKRSSSTLPVPVFKRKIP"}}, "data": [{"variants_of": "B1", "conditions": "with CCL22 (biotinylated, synthetic); scale: log2", "values": [{"variant": "chain 1 C13K", "enrichment": -9.12}, {"variant": "chain 1 C13Q", "enrichment": -9.37}, {"variant": "chain 1 C13R", "enrichment": -10.5}, {"variant": "chain 1 E1C", "enrichment": -9.75}, {"variant": "chain 1 A7C", "enrichment": -9.84}, {"variant": "chain 1 Y8E", "enrichment": -6.18}, {"variant": "chain 1 Y8P", "enrichment": -7.86}, {"variant": "chain 1 Y8Q", "enrichment": -6.36}, {"variant": "chain 1 Y8I", "enrichment": -9.38}, {"variant": "chain 1 Y8M", "enrichment": -8.49}, {"variant": "chain 1 Y8K", "enrichment": -6.07}, {"variant": "chain 1 Y8N", "enrichment": -8.13}, {"variant": "chain 1 Y8G", "enrichment": -8.71}, {"variant": "chain 1 Y8T", "enrichment": -8.48}, {"variant": "chain 1 Y8R", "enrichment": -8.18}, {"variant": "chain 1 Y8H", "enrichment": -7.57}, {"variant": "chain 1 Y5G", "enrichment": -7.11}, {"variant": "chain 1 Y5K", "enrichment": -5.6}, {"variant": "chain 1 Y5P", "enrichment": -6.73}, {"variant": "chain 1 Y5Q", "enrichment": -5.36}, {"variant": "chain 1 Y5R", "enrichment": -7.05}, {"variant": "chain 1 P10I", "enrichment": -8.44}, {"variant": "chain 1 P10Q", "enrichment": -6.39}, {"variant": "chain 1 P10S", "enrichment": -9.19}, {"variant": "chain 1 P10T", "enrichment": -7.86}, {"variant": "chain 1 P10H", "enrichment": -7.95}, {"variant": "chain 1 P10V", "enrichment": -10.4}, {"variant": "chain 1 P10M", "enrichment": -8.5}, {"variant": "chain 1 P10K", "enrichment": -6.96}, {"variant": "chain 1 P10N", "enrichment": -8.02}, {"variant": "chain 1 P10R", "enrichment": -9.08}, {"variant": "chain 1 P10C", "enrichment": -9.72}, {"variant": "chain 1 P10A", "enrichment": -8.71}, {"variant": "chain 1 D3Q", "enrichment": -4.99}, {"variant": "chain 1 D3C", "enrichment": -9.89}, {"variant": "chain 1 D3R", "enrichment": -7.45}, {"variant": "chain 1 A9C", "enrichment": -10.1}, {"variant": "chain 1 A9P", "enrichment": -7.8}, {"variant": "chain 1 A9I", "enrichment": -9.99}, {"variant": "chain 1 A9D", "enrichment": -8.23}, {"variant": "chain 1 E2R", "enrichment": -7.13}, {"variant": "chain 1 E2C", "enrichment": -10}, {"variant": "chain 1 D4C", "enrichment": -9.24}, {"variant": "chain 1 D4H", "enrichment": -7.77}, {"variant": "chain 1 D4G", "enrichment": -6.22}, {"variant": "chain 1 D4R", "enrichment": -7.09}, {"variant": "chain 1 D4T", "enrichment": -7.88}, {"variant": "chain 1 D4K", "enrichment": -6.88}]}, {"variants_of": "B2", "conditions": "with CXCL13 (biotinylated, synthetic); scale: log2", "values": [{"variant": "chain 1 Y14P", "enrichment": -7.63}, {"variant": "chain 1 Y14R", "enrichment": -8.87}, {"variant": "chain 1 Y14G", "enrichment": -9.28}, {"variant": "chain 1 Y14L", "enrichment": -9.26}, {"variant": "chain 1 Y14D", "enrichment": -6.3}, {"variant": "chain 1 Y14E", "enrichment": -7.54}, {"variant": "chain 1 Y14I", "enrichment": -6.05}, {"variant": "chain 1 Y14Q", "enrichment": -6.82}, {"variant": "chain 1 Y14K", "enrichment": -6.94}, {"variant": "chain 1 Y14N", "enrichment": -5.67}, {"variant": "chain 1 Y14A", "enrichment": -8.81}, {"variant": "chain 1 Y14S", "enrichment": -8.45}, {"variant": "chain 1 Y8C", "enrichment": -8.46}, {"variant": "chain 1 Y8R", "enrichment": -6.96}, {"variant": "chain 1 Y8P", "enrichment": -6.64}, {"variant": "chain 1 Y8K", "enrichment": -4.84}, {"variant": "chain 1 Y5K", "enrichment": -4.37}, {"variant": "chain 1 Y5T", "enrichment": -6.44}, {"variant": "chain 1 Y5R", "enrichment": -5.82}, {"variant": "chain 1 Y5C", "enrichment": -7.94}, {"variant": "chain 1 P10T", "enrichment": -6.64}, {"variant": "chain 1 P10Y", "enrichment": -7.34}, {"variant": "chain 1 T12E", "enrichment": -6.73}, {"variant": "chain 1 T12G", "enrichment": -9.07}, {"variant": "chain 1 T12K", "enrichment": -6.36}]}]}
